Experiments:
NGF = assay: cell-based or functional assay
FGFR3 = assay: cell-based or functional assay

Chain of NGF (P01138 122-241): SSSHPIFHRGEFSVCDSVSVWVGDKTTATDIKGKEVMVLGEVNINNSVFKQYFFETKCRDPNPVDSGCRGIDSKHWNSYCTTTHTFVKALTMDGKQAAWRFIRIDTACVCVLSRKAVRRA

Binder	anti-NGF IC50 (nM), U2OS TrkA_p75 assay; construct from expiCHO-S (NGF) [nM]	FGF18 EC50 (nM), BaF3/FGFR3 assay; construct from expiCHO-S (FGFR3) [nM]	anti-NGF IC50 (nM), U2OS TrkA_p75 assay; construct from HEK293 (NGF) [nM]	FGF18 EC50 (nM), BaF3/FGFR3 assay; construct from HEK293 (FGFR3) [nM]
FGF18 SEED (HO113) (other) EPKSSDKTHTCPPCPAPEAAGGPSVFLFPPKPKDTLMISRTPEVTCVVVDVSHEDPEVKFNWYVDGVEVHNAKTKPREEQYNSTYRVVSVLTVLHQDWLNGKEYKCKVSNKALGAPIEKTISKAKGQPREPQVYTLPPPSEELALNELVTLTCLVKGFYPSDIAVEWLQGSQELPREKYLTWAPVLDSDGSFFLYSILRVAAEDWKKGDTFSCSVMHEALHNRFTQKSLDRSPGKGGGGSEPKSSDKTHTGGGGSEENVDFRIHVENQTRARDDVSRKQLRLYQLYSRTSGKHIQVLGRRISARGEDGDKYAQLLVETDTFGSQVRIKGKETEFYLCMNRKGKLVGKPDGTSKECVFIEKVLENNYTALMSAKYSGWYVGFTKKGRPRKGPKTRENQQDVHFMKRYPKGQPELQKPFKYTTVTKRSRRIRPTHPA heavy: QVQLQESGPGLVKPSETLSLTCTVSGFSLIGYDLNWIRQPPGKGLEWIGIIWGDGTTDYNSAVKSRVTISKDTSKNQFSLKLSSVTAADTAVYYCARGGYWYATSYYFDYWGQGTLVTVSSASTKGPSVFPLAPSSKSTSGGTAALGCLVKDYFPEPVTVSWNSGALTSGVHTFPAVLQSSGLYSLSSVVTVPSSSLGTQTYICNVNHKPSNTKVDKKVEPKSCDKTHTCPPCPAPEAAGGPSVFLFPPKPKDTLMISRTPEVTCVVVDVSHEDPEVKFNWYVDGVEVHNAKTKPREEQYNSTYRVVSVLTVLHQDWLNGKEYKCKVSNKALGAPIEKTISKAKGQPREPQVYTLPPPSEELALNELVTLTCLVKGFYPSDIAVEWLQGSQELPREKYLTWAPVLDSDGSFFLYSILRVAAEDWKKGDTFSCSVMHEALHNRFTQKSLDRSPGK light: not shown	0.95	0.1		
FGF18 SEED (HOF3) (other) light: not shown heavy: QVQLQESGPGLVKPSETLSLTCTVSGFSLIGYDLNWIRQPPGKGLEWIGIIWGDGTTDYNSAVKSRVTISKDTSKNQFSLKLSSVTAADTAVYYCARGGYWYATSYYFDYWGQGTLVTVSSASTKGPSVFPLAPSSKSTSGGTAALGCLVKDYFPEPVTVSWNSGALTSGVHTFPAVLQSSGLYSLSSVVTVPSSSLGTQTYICNVNHKPSNTKVDKKVEPKSC	0.98	0.05		
FGF18_scFv fasinumab (LH) (other) EENVDFRIHVENQTRARDDVSRKQLRLYQLYSRTSGKHIQVLGRRISARGEDGDKYAQLLVETDTFGSQVRIKGKETEFYLCMNRKGKLVGKPDGTSKECVFIEKVLENNYTALMSAKYSGWYVGFTKKGRPRKGPKTRENQQDVHFMKRYPKGQPELQKPFKYTTVTKGGGGSGGGGSGGGGSDIQMTQSPSSLSASAGDRVTITCRASQAIRNDLGWYQQKPGKAPKRLIYAAFNLQSGVPSRFSGSGSGTEFTLTISSLQPEDLASYYCQQYNRYPWTFGQGTKVEIKGGGGSGGGGSGGGGSQVQLVQSGAEVKKPGASVKVSCKVSGFTLTELSIHWVRQAPGKGLEWMGGFDPEDGETIYAQKFQGRVTMTEDTSTDTAYMELTSLRSEDTAVYYCSTIFGVVTNFDNWGQGTLVTVSS			0.62	0.06
FGF18_scFv tanezumab (LH) (other) EENVDFRIHVENQTRARDDVSRKQLRLYQLYSRTSGKHIQVLGRRISARGEDGDKYAQLLVETDTFGSQVRIKGKETEFYLCMNRKGKLVGKPDGTSKECVFIEKVLENNYTALMSAKYSGWYVGFTKKGRPRKGPKTRENQQDVHFMKRYPKGQPELQKPFKYTTVTKGGGGSGGGGSGGGGSDIQMTQSPSSLSASVGDRVTITCRASQSISNNLNWYQQKPGKAPKLLIYYTSRFHSGVPSRFSGSGSGTDFTFTISSLQPEDIATYYCQQEHTLPYTFGQGTKLEIKGGGGSGGGGSGGGGSQVQLQESGPGLVKPSETLSLTCTVSGFSLIGYDLNWIRQPPGKGLEWIGIIWGDGTTDYNSAVKSRVTISKDTSKNQFSLKLSSVTAADTAVYYCARGGYWYATSYYFDYWGQGTLVTVSS			0.43	0.16
FGF18 SEED (HO114) (other) heavy: QVQLQESGPGLVKPSETLSLTCTVSGFSLIGYDLNWIRQPPGKGLEWIGIIWGDGTTDYNSAVKSRVTISKDTSKNQFSLKLSSVTAADTAVYYCARGGYWYATSYYFDYWGQGTLVTVSSASTKGPSVFPLAPSSKSTSGGTAALGCLVKDYFPEPVTVSWNSGALTSGVHTFPAVLQSSGLYSLSSVVTVPSSSLGTQTYICNVNHKPSNTKVDKKVEPKSCDKTHTCPPCPAPEAAGGPSVFLFPPKPKDTLMISRTPEVTCVVVDVSHEDPEVKFNWYVDGVEVHNAKTKPREEQYNSTYRVVSVLTVLHQDWLNGKEYKCKVSNKALGAPIEKTISKAKGQPFRPEVHLLPPSREEMTKNQVSLTCLARGFYPKDIAVEWESNGQPENNYKTTPSRQEPSQGTTTFAVTSKLTVDKSRWQQGNVFSCSVMHEALHNHYTQKTISLSPGK EPKSSDKTHTCPPCPAPEAAGGPSVFLFPPKPKDTLMISRTPEVTCVVVDVSHEDPEVKFNWYVDGVEVHNAKTKPREEQYNSTYRVVSVLTVLHQDWLNGKEYKCKVSNKALGAPIEKTISKAKGQPREPQVYTLPPPSEELALNELVTLTCLVKGFYPSDIAVEWLQGSQELPREKYLTWAPVLDSDGSFFLYSILRVAAEDWKKGDTFSCSVMHEALHNRFTQKSLDRSPGK light: not shown	0.88	0.02		

Reference: patent US20200299347A1 (Merck KGaA, published 2020)
